According to publication PMC3242593, “Influence of glioma tumour microenvironment on the transport of ANG1005 via low-density lipoprotein receptor-related protein 1” (British Journal of Cancer, 2011):

Test system: U87 human glioblastoma cells
Test: [125I]-Angiopep-2 or [125I]-ANG1005 uptake assay in U87 cells (LRP1-mediated endocytosis)
Format: cell-based
Conditions: unlabelled Angiopep-2 50 μM or preincubated RAP 1 μM, percentage of control, quadruplicate
Method: In brief, beads were washed twice with 3 ml of PBS on a Whatman filter and resuspended in 60 μl of PBS. Na^125I (1 mCi) from GE Healthcare (Baie d’Urfé, QC, Canada) was added to the bead suspension for 5 min at room temperature. Iodination was initiated by adding 100 μg of peptide (80–100 μl) diluted in 0.1 M phosphate buffer solution, pH 6.5.
In-vitro silencing of LRP1 was carried out by standard methodologies ([Song et al, 2009]). The sequences of oligonucleotides were […]tt (sense) and […]tt (antisense). Human U87 glioblastoma cells were grown to 50% confluence and were transfected with LRP1 silencing RNA (siRNA) using Lipofectamine 2000 (Life Technologies Corporation, Carlsbad, CA, USA) according to the manufacturer's specifications. After 48 h of transfection, cells were used for subsequent assays. Expression of proteins was assessed by western blot analysis.
Cells were incubated in medium in which the sodium bicarbonate had been replaced with Ringer/HEPES buffer (150 mM NaCl, 5.2 mM KCl, 2.2. mM CaCl2, 0.2 mM MgCl2·6H2O, 6 mM NaHCO3, 2.8 mM glucose, and 5 mM HEPES). […]
Cells were seeded in a 24-well plate (5 × 10^4 cells per well) in appropriate media and fed for 3 days. […] Results were quantified with a Wizard 1470 Gamma counter (Perkin-Elmer, Woodbridge, ON, Canada). […]

B1: RAP: receptor-associated protein, a known LRP1 ligand that competitively inhibits uptake of Angiopep-2 (protein, UniProt P30533 35-357, looked up)
Alpha-2-macroglobulin …: YSREKNQPKPSPKRESGEEFRMEKLNQLWEKAQRLHLPPVRLAELHADLKIQERDELAWKKLKLDGLDEDGEKEARLIRNLNVILAKYGLDGKKDARQVTSNSLSGTQEDGLDDPRLEKLWHKAKTSGKFSGEELDKLWREFLHHKEKVHEYNVLLETLSRTEEIHENVISPSDLSDIKGSVLHSRHTELKEKLRSINQGLDRLRRVSHQGYSTEAEFEEPRVIDLWDLAQSANLTDKELEAFREELKHFEAKIEKHNHYQKQLEIAHEKLRHAESVGDGERVSRSREKHALLEGRTKELGYTVKKHLQDLSGRISRARHNEL
- effect of unlabelled competitor on uptake of [125I]-Angiopep-2 (500 nM): inhibited
